Results: publication PMC7817830

Key:
[1] = target: Flag-tagged WT PKM2 expressed in 32D BCR-ABL cells (UniProt P14618); assay: SEC; cell lysate of 32D BCR-ABL cells on Superdex 200 10/300GL, 50 mM phosphate, 0.15 M NaCl, pH 7.2; fractions by UV absorbance and western blot
[2] = target: recombinant His-tagged PKM2 after the in vitro SUMOylation reaction (SUMO1 conjugated at K270) (UniProt P14618); assay: SEC; samples of the in vitro SUMOylation reaction (recombinant PKM2 or PKM1 with or without purified SUMO1, E1 and E2); UV absorbance and western blot of the fractions with anti-PKM2 or anti-PKM1; tetramer, dimer, monomer by molecular weight

Chain of Flag-tagged WT PKM2 expressed in 32D BCR-ABL cells, P14618 1-531 (enzyme; other documents disagree on this pair) (P14618 whole entry): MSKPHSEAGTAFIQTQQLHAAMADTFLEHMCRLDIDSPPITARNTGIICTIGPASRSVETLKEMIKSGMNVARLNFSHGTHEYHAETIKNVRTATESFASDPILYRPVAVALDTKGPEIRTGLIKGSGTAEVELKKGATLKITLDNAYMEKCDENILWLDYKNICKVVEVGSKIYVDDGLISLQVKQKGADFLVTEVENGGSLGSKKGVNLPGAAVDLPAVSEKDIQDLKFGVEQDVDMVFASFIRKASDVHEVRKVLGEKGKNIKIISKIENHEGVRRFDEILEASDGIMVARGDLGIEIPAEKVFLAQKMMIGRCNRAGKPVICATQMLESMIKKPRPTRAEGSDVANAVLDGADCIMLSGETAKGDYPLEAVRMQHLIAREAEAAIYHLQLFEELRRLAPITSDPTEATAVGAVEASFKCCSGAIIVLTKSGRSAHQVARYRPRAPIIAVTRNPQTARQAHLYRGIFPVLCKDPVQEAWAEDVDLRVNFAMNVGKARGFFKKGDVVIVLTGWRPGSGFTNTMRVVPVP
Chain of recombinant His-tagged PKM2 after the in vitro SUMOylation reaction (SUMO1 conjugated at K270) (from UniProt P14618 1-531; P63165 1-97) (enzyme) (P14618 whole entry): as above
Chain of recombinant His-tagged PKM2 after the in vitro SUMOylation reaction (SUMO1 conjugated at K270) (from UniProt P14618 1-531; P63165 1-97) (enzyme) (P63165 1-97): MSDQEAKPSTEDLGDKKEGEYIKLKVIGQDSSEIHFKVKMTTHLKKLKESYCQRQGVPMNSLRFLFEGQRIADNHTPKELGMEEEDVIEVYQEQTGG

Row | stoichiometry N [1] | stoichiometry N [2] | Substance
1 | 2 |  | Flag-tagged WT PKM2 expressed in 32D BCR-ABL cells, P14618 1-531 (enzyme; other documents disagree on this pair)
2 |  | 2 | recombinant His-tagged PKM2 after the in vitro SUMOylation reaction (SUMO1 conjugated at K270) (from UniProt P14618 1-531; P63165 1-97) (enzyme)
